One block for each molecule: values may come before it.
Key:
STAT1 = assay: Interplay of STAT1 Y701 phosphorylation and K703 SUMOylation by USDDS, western blot; format: cell-based, human; conditions: HEK293, USDDS with AP21967 1 μM and interferon-β, any stimulation scenario
JUN-U = target: T1, JUN-U (Homo sapiens, UniProt P05412+P63279); assay: Trans-SUMOylation by JUN-U; format: cell-based; conditions: protein 2 construct coexpressed with JUN-U and EGFP-SUMO1 in HEK293, western blot
T1 construct: expressed in transfected cells; host or cells: HEK293
T1 sequence (P05412+P63279 fused): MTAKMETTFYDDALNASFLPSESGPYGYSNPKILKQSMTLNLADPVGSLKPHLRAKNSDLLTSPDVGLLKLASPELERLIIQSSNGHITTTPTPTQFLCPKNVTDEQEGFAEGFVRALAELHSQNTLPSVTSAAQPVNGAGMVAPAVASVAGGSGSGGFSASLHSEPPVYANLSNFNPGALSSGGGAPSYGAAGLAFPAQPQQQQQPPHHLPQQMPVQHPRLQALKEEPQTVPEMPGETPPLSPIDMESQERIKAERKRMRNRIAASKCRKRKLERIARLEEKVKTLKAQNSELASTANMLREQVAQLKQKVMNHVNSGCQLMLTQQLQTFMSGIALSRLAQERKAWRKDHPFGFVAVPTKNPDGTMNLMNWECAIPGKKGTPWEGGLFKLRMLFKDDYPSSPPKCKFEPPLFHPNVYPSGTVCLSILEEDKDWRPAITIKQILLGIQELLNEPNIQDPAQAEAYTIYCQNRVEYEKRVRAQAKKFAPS

p53-U = target: T2, p53-U (Homo sapiens, UniProt P04637+P63279); assay: Trans-SUMOylation by p53-U; format: cell-based; conditions: western blot
T2 construct: expressed in transfected cells; host or cells: HEK293

U-MK5 = target: T3, U-MK5 (Homo sapiens, UniProt P63279+Q8IW41); assay: Trans-SUMOylation by U-MK5; format: cell-based; parameters: key: (++), strong TransSUMOylation; (+), TransSUMOylation; (+/−) weak TransSUMOylation; (−) no detectable TransSUMOylation; conditions: protein 2 construct coexpressed with U-MK5 and EGFP-SUMO1 in HEK293; western blot; Table 2
T3 construct: expressed in transfected cells; host or cells: HEK293
T3 sequence (P63279+Q8IW41 fused): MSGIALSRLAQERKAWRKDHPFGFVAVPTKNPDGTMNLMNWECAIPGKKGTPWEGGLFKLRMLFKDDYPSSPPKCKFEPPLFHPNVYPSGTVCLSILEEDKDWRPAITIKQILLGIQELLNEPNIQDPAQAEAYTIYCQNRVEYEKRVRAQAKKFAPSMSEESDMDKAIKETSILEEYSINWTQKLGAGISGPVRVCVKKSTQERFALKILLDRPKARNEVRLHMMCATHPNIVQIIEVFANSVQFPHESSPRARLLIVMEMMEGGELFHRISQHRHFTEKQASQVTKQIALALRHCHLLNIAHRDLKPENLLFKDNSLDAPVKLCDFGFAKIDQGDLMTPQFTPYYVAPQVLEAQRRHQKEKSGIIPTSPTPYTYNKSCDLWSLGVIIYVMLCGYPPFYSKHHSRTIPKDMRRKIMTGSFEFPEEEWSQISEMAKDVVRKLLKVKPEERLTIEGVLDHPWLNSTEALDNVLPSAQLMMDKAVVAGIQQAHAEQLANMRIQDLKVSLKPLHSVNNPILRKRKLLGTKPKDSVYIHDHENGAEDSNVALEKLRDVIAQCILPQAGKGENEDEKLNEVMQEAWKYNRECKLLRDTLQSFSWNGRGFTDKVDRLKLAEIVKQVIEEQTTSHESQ
Excerpt: (§1) To identify new SUMOylation substrates and to study the function of SUMOylation the Ubc9/substrate dimerisation-dependent SUMOylation system (USDDS) was developed which consists of fusions of the SUMOylation substrate and of the SUMO-conjugating enzyme Ubc9 to the chemically activatable heterodimerisation domains FKBP and FRB, respectively, as shown in FIG. 2. When the substrate protein fused to FKBP is coexpressed with Ubc9-FRB, treatment of HEK293 cells with the rapamycin-related dimerizer AP21967 induces SUMOylation of the substrate protein fused to FKBP at its specific SUMOylation site. […] Dependent on an EcoRl site in the coding sequence, seven C-terminal amino acids of the human STAT1a in the STAT1-FKBP/FRB fusion proteins are missing. For the SUMOylation analysis HEK293 (human embryonic kidney cells) cells have been used. HEK293 cells were cultured in Dulbecco's modified Eagle's medium with high glucose, complemented with 10% fetal calf serum, 2 mM L-glutamine, 100 U/ml penicillin and […] streptomycin. […]
(§2) As shown above, the SUMOylation of a protein of interest can be induced by the heterodimerisation with a binding protein fused to Ubc9. […] Therefore the protein pairs were coexpressed with EGFP-SUMO1 in HEK293 cells and after 24h the transfectants were lysed and the protein extracts were analyzed in western blots. […]

U-MK2 = target: T4, U-MK2 (Homo sapiens, UniProt P49137+P63279); assay: Trans-SUMOylation by U-MK2; format: cell-based; conditions: protein 2 construct coexpressed with U-MK2 and EGFP-SUMO1 in HEK293; western blot; Table 2
T4 construct: expressed in transfected cells; host or cells: HEK293
T4 sequence (P63279+P49137 fused): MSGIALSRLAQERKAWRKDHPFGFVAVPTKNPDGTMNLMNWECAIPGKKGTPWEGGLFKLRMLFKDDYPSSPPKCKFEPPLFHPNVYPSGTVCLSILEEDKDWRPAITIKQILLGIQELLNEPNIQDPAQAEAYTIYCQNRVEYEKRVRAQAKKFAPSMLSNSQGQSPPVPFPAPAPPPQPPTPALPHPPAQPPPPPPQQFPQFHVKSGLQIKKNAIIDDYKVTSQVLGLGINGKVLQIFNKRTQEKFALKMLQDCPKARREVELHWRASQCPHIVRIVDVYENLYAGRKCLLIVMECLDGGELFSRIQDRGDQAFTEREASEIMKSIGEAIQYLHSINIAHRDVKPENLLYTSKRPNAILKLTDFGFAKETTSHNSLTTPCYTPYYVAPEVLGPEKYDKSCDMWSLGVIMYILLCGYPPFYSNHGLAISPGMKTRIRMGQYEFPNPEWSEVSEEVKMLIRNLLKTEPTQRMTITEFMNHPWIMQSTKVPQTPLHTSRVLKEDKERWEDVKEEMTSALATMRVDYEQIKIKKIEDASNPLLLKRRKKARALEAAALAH

MK2-U = target: T5, MK2-U (Homo sapiens, UniProt P49137+P63279); assay: Trans-SUMOylation by MK2-U; format: cell-based; conditions: protein 2 construct coexpressed with MK2-U and EGFP-SUMO1 in HEK293; western blot; Table 2
T5 construct: expressed in transfected cells; host or cells: HEK293
T5 sequence (P49137+P63279 fused): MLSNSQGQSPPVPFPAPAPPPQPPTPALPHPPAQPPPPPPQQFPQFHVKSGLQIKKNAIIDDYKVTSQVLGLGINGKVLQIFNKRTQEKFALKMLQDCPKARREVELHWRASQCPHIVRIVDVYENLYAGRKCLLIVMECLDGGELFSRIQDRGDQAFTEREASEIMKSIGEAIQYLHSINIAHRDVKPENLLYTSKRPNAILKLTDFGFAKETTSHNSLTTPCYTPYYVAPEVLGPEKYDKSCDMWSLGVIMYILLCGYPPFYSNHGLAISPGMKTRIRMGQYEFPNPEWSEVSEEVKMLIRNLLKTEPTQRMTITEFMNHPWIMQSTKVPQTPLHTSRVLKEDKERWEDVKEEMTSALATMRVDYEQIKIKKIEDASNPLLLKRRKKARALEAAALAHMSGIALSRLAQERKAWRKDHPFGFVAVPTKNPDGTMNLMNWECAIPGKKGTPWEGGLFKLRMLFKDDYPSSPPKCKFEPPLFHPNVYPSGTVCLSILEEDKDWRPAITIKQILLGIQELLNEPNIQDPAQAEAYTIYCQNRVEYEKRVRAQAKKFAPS

U-p38α = target: T6, U-p38α (Homo sapiens, UniProt P63279+Q16539); assay: Trans-SUMOylation by U-p38α; format: cell-based; conditions: protein 2 construct coexpressed with U-p38α and EGFP-SUMO1 in HEK293; western blot; Table 2
T6 construct: expressed in transfected cells; host or cells: HEK293
T6 sequence (P63279+Q16539 fused): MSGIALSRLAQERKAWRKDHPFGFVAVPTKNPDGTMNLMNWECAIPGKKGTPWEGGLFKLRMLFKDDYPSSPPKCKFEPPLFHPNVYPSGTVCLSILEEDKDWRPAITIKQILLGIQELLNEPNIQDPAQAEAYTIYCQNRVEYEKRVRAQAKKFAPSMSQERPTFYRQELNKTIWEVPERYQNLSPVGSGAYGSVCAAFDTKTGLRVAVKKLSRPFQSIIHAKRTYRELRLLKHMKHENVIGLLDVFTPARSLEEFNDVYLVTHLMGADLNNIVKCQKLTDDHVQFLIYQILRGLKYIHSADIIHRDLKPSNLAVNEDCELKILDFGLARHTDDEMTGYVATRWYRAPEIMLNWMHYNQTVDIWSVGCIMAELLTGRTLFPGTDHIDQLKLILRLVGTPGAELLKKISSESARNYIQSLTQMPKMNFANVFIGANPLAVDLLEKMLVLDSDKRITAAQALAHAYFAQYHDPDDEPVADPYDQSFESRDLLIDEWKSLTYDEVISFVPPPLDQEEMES

U-CDC37 = target: T7, U-CDC37 (Homo sapiens, UniProt P63279+Q16543); assay: Trans-SUMOylation by U-CDC37; format: cell-based; parameters: key: (++), strong TransSUMOylation; (+), TransSUMOylation; (+/−) weak TransSUMOylation; (−) no detectable TransSUMOylation; conditions: protein 2 construct coexpressed with U-CDC37 and EGFP-SUMO1 in HEK293; western blot; Table 1
T7 construct: expressed in transfected cells; host or cells: HEK293
T7 sequence (P63279+Q16543 fused): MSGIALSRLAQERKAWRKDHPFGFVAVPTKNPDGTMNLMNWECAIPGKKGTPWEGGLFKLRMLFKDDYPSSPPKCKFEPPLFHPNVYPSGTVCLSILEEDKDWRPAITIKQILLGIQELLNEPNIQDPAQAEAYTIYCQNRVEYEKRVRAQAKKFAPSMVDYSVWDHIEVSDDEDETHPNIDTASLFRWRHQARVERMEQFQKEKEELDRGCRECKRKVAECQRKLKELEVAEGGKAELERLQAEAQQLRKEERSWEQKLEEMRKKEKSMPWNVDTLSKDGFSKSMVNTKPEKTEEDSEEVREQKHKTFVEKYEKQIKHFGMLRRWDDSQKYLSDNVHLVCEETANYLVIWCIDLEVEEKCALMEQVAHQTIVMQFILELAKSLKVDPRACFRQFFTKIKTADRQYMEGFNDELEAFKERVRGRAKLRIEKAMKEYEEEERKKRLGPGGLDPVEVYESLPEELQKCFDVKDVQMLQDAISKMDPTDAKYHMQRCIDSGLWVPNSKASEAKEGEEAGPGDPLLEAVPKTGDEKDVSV
Excerpt: as §1, §2

Ubc9-FKBP = target: T8, Ubc9-FKBP (Homo sapiens, UniProt P42345+P63279); assay: USDDS specificity for SUMOylation sites (K-to-R mutants), western blot; format: cell-based; conditions: HEK293, coexpressed with Ubc9-FKBP and EGFP-SUMO1, stimulated with AP21967 1 μM
T8 construct: expressed in transfected cells; host or cells: HEK293
T8 sequence (P63279 with tags, fused parts or gaps): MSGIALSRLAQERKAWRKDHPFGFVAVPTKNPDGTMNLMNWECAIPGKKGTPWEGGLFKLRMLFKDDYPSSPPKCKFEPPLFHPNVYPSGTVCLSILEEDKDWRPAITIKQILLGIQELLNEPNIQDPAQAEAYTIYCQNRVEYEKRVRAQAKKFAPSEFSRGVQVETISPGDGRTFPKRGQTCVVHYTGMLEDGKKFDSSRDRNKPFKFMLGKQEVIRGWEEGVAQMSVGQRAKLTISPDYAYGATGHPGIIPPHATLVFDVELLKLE
T8 sequence (P42345 2021-2113 limits assumed): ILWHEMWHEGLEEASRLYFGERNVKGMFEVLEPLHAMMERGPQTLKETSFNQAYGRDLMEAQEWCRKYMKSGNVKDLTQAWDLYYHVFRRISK

[1] = protein 2 construct coexpressed with p53-U and EGFP-SUMO1 in HEK293, Table 2

B1: STAT1-FRB: human STAT1a fused to FRB (T2098L) heterodimerisation domain (protein)
chain: MSQWYELQQLDSKFLEQVHQLYDDSFPMEIRQYLAQWLEKQDWEHAANDVSFATIRFHDLLSQLDDQYSRFSLENNFLLQHNIRKSKRNLQDNFQEDPIQMSMIIYSCLKEERKILENAQRFNQAQSGNIQSTVMLDKQKELDSKVRNVKDKVMCIEHEIKSLEDLQDEYDFKCKTLQNREHETNGVAKSDQKQEQLLLKKMYLMLDNKRKEVVHKIIELLNVTELTQNALINDELVEWKRRQQSACIGGPPNACLDQLQNWFTIVAESLQQVRQQLKKLEELEQKYTYEHDPITKNKQVLWDRTFSLFQQLIQSSFVVERQPCMPTHPQRPLVLKTGVQFTVKLRLLVKLQELNYNLKVKVLFDKDVNERNTVKGFRKFNILGTHTKVMNMEESTNGSLAAEFRHLQLKEQKNAGTRTNEGPLIVTEELHSLSFETQLCQPGLVIDLETTSLPVVVISNVSQLPSGWASILWYNMLVAEPRNLSFFLTPPCARWAQLSEVLSWQFSSVTKRGLNVDQLNMLGEKLLGPNASPDGLIPWTRFCKENINDKNFPFWLWIESILELIKKHLLPLWNDGCIMGFISKERERALLKDQQPGTFLLRFSESSREGAITFTWVERSQNGGEPDFHAVEPYTKKELSAVTFPDIIRNYKVMAAENIPENPLKYLYPNIDKDHAFGKYYSRPKEAPEPMELDGPKGTGYIKTELISVSEVHPSRLQTTDNLLPMSPEEFDEVSRIVGSVEFILWHEMWHEGLEEASRLYFGERNVKGMFEVLEPLHAMMERGPQTLKETSFNQAYGRDLMEAQEWCRKYMKSGNVKDLLQAWDLYYHVFRRISK
- double modification of STAT1 by SUMOylation and Y701 phosphorylation (STAT1): no double modification

B4: GST-CDK4: CDK4 fused to GST tag (protein, UniProt P11802 2-303, looked up)
Cyclin-dependent kinase 4: ATSRYEPVAEIGVGAYGTVYKARDPHSGHFVALKSVRVPNGGGGGGGLPISTVREVALLRRLEAFEHPNVVRLMDVCATSRTDREIKVTLVFEHVDQDLRTYLDKAPPPGLPAETIKDLMRQFLRGLDFLHANCIVHRDLKPENILVTSGGTVKLADFGLARIYSYQMALTPVVVTLWYRAPEVLLQSTYATPVDMWSVGCIFAEMFRRKPLFCGNSEADQLGKIFDLIGLPPEDDWPRDVSLPRGAFPPRGPRPVQSVVPEMEESGAQLLLEMLTFNPHKRISAFRALQHSYLHKDEGNPE
modifications: GST tag
- Trans-SUMOylation (U-CDC37): +
- Trans-SUMOylation (p53-U; [1]): −

Further lines, results first:

- Trans-SUMOylation (JUN-U; Table 1): −
- Trans-SUMOylation (p53-U; protein 2 construct coexpressed with P53-U (p53-U) and EGFP-SUMO1 in HEK293, Table 1): −
B2: HA-JNK1: JNK1 fused to HA tag (protein)
chain: MSRSKRDNNFYSVEIGDSTFTVLKRYQNLKPIGSGAQGIVCAAYDAILERNVAIKKLSRPFQNQTHAKRAYRELVLMKCVNHKNIIGLLNVFTPQKSLEEFQDVYIVMELMDANLCQVIQMELDHERMSYLLYQMLCGIKHLHSAGIIHRDLKPSNIVVKSDCTLKILDFGLARTAGTSFMMTPYVVTRYYRAPEVILGMGYKENVDLWSVGCIMGEMVCHKILFPGRDYIDQWNKVIEQLGTPCPEFMKKLQPTVRTYVENRPKYAGYSFEKLFPDVLFPADSEHNKLKASQARDLLSKMLVIDASKRISVDEALQHPYINVWYDPSEAEAPPPKIPDKQLDEREHTIEEWKELIYKEVMDLEERTKNGVIRGQPSPLAQVQQ
modifications: left off: small tags and cut ends
notes: JNK1 fused to HA tag

- Trans-SUMOylation (JUN-U; Table 2): −
- Trans-SUMOylation (U-MK5): −
- Trans-SUMOylation (U-MK2): −
- Trans-SUMOylation (MK2-U): −
- Trans-SUMOylation (U-p38α): −
- Trans-SUMOylation (p53-U; [1]): −
B3: GST-DRG1: DRG1 fused to GST tag (protein)
chain: MSSTLAKIAEIEAEMARTQKNKATAHHLGLLKARLAKLRRELITPKGGGGGGPGEGFDVAKTGDARIGFVGFPSVGKSTLLSNLAGVYSEVAAYEFTTLTTVPGVIRYKGAKIQLLDLPGIIEGAKDGKGRGRQVIAVARTCNLILIVLDVLKPLGHKKIIENELEGFGIRLNSKPPNIGFKKKDKGGINLTATCPQSELDAETVKSILAEYKIHNADVTLRSDATADDLIDVVEGNRVYIPCIYVLNKIDQISIEELDIIYKVPHCVPISAHHRWNFDDLLEKIWDYLKLVRIYTKPKGQLPDYTSPVVLPYSRTTVEDFCMKIHKNLIKEFKYALVWGLSVKHNPQKVGKDHTLEDEDVIQIVKK
modifications: left off: a dimerising Fc or GST
notes: DRG1 fused to GST tag

- SUMOylation of mutant fusion protein (Ubc9-FKBP): nearly no SUMOylation
B5: STAT1K703R-FRB: STAT1 SUMOylation site mutant K703R fused to FRB (protein, UniProt P42224 2-750, looked up, variant K703R)
Signal transducer and …: SQWYELQQLDSKFLEQVHQLYDDSFPMEIRQYLAQWLEKQDWEHAANDVSFATIRFHDLLSQLDDQYSRFSLENNFLLQHNIRKSKRNLQDNFQEDPIQMSMIIYSCLKEERKILENAQRFNQAQSGNIQSTVMLDKQKELDSKVRNVKDKVMCIEHEIKSLEDLQDEYDFKCKTLQNREHETNGVAKSDQKQEQLLLKKMYLMLDNKRKEVVHKIIELLNVTELTQNALINDELVEWKRRQQSACIGGPPNACLDQLQNWFTIVAESLQQVRQQLKKLEELEQKYTYEHDPITKNKQVLWDRTFSLFQQLIQSSFVVERQPCMPTHPQRPLVLKTGVQFTVKLRLLVKLQELNYNLKVKVLFDKDVNERNTVKGFRKFNILGTHTKVMNMEESTNGSLAAEFRHLQLKEQKNAGTRTNEGPLIVTEELHSLSFETQLCQPGLVIDLETTSLPVVVISNVSQLPSGWASILWYNMLVAEPRNLSFFLTPPCARWAQLSEVLSWQFSSVTKRGLNVDQLNMLGEKLLGPNASPDGLIPWTRFCKENINDKNFPFWLWIESILELIKKHLLPLWNDGCIMGFISKERERALLKDQQPGTFLLRFSESSREGAITFTWVERSQNGGEPDFHAVEPYTKKELSAVTFPDIIRNYKVMAAENIPENPLKYLYPNIDKDHAFGKYYSRPKEAPEPMELDGPKGTGYIRTELISVSEVHPSRLQTTDNLLPMSPEEFDEVSRIVGSVEFDSMMNTV
modifications: fused to FRB domain

Source: patent publication US8551717B2, “Method for determining sumoylation” (Medizinische Hochschule Hannover, priority 2008, dated 2013)
